One assay addresses T1, canine PD-1 ECD-6His.
T1 chain: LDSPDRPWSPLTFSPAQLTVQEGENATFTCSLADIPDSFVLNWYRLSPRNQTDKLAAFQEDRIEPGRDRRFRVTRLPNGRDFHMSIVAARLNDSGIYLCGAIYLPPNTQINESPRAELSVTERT
Briefly: SPR; monovalent binding. In general terms: SPR reads the build-up and loss of mass on a sensor chip optically.

Another assay concerns the target T2, canine PD-1 ECD-mFc.
T2 chain: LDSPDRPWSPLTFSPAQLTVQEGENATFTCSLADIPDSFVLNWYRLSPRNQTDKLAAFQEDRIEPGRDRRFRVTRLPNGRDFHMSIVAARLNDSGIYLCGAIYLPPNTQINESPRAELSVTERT
Nature of the assay: SPR; avid.

In assay [1] the target is T3, canine PD-1, full-length, membrane-embedded.
T3 chain: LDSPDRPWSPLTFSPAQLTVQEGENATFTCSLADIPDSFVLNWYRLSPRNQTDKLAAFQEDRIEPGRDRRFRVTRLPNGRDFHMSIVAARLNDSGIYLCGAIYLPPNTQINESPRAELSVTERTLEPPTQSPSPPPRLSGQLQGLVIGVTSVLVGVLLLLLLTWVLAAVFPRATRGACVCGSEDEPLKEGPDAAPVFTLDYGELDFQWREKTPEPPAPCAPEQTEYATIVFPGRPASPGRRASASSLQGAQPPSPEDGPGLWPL
Briefly: flow cytometry; apparent Kd of cell binding. (In general: A flow cytometer gives signals particle by particle.)

Another assay addresses PMX-149. Nature of the assay: flow cytometry; apparent Kd of cell binding.
A further assay has as its target PMX-150. Nature of the assay: flow cytometry; apparent Kd of cell binding.
Another assay has as its target PMX-147. Briefly: flow cytometry; apparent Kd of cell binding.
The target in the next assay is PMX-145. Nature of the assay: flow cytometry; apparent Kd of cell binding.

B1: PMX152 (antibody, V domains shown)
VH: EVQLVESGGDLVKPGGSLRLSCVASGFTFSRYYMNWVRQAPGKGPQWVAYINNAGSDRNYVDAVKGRFTISRDNAKNTLYLQMNSLRAEDTAVYYCASEIRGVVVVGHLDYWGQGTLVTVSS
VL: SYVLTQLPSKSVTLNQPAHITCGGDNIGSKSVHWYQQKLGQAPVLIIYYDSIRPTGIPERFSGATSGNTATLTISGALAEDEADYYCQVWDSSAKAWVFGEGTQLTVL
For the molecule B1, the Kd with canine PD-1 ECD-6His came out at 24.2 nM; with canine PD-1 ECD-mFc it was 0.0318 nM.

B2: PMX151 (antibody, V domains shown)
VH: EVQLVESGGDLVKSGGSLRLSCVASGFTFNTYSMNWVRQAPGKGLQWVARIKSSGSSTTYADAVKGRFTVSRDIAKNTLFLQMNSLRAEDTALYYCASEPGARYEIYFVESFFDYWGQGTLVTVSS
VL: SYVLTQLPSKSVTLKQPAHITCGGDNIGSKSVHWYQQKLGQAPVLIIYYDSSRPTGIPERFSGANSGNTATLTISGALAEDEADYYCQVWDSSAQAWIFGEGTQLTVL
For B2, the figures for the Kd (with canine PD-1 ECD-6His; in assay [1]; in the assay with canine PD-1 ECD-mFc) were 1.7 nM, 2.97 nM and 0.0322 nM, respectively.

B3: PMX125 (antibody, V domains shown)
VH: EVQLVESGGDLVKPGGSLRLSCVASGFSFSRYHMSWVRQAPGKGLQWVAYIISGGITTSYADAVKGRFTISRDNAKNTLFLQMNSLRAEDTAVYYCATYGSYFFDKWGQGTLVTVSS
VL: DIVMTQTPLSLSVSPGETASISCKASQSLLHSDGKSYLNWFRQKPGQSPQRLIYRVSNRDPGVPDRFSGSGSGTDFTLRISRVEADDTGLYYCGQVIQDPTFGAGTKVELK
As for B3, the values for the Kd (with canine PD-1 ECD-6His; in assay [1]; in the assay with canine PD-1 ECD-mFc) were 7.7 nM, 1.07 nM and 0.0348 nM, respectively.

B4: PMX127 (antibody, V domains shown)
VH: EVQLVESGGDLVKPGGSLRLSCVASGFSFSRYHMSWVRQAPGKGLQWVAYIVSGGISTSYADAVKGRFTISRDNAKNTLFLQMNSLRAEDTAVYYCATYGSYFFDTWGQGTLVTVSS
VL: DIVMTQTPLSLSVSPGETASIFCKASQSLLHSDGKSYLNWFRQKPGQSPQRLIYRVSNRDPGVPDRFSGSGSGTDFTLRISRVEADDTGLYYCGQVIQDPTFGAGTKVELK
As for B4, the Kd in the assay with canine PD-1 ECD-6His was found to be 2.2 nM; in assay [1], 0.86 nM; in the assay with canine PD-1 ECD-mFc it was 0.0024 nM.

B5: PMX126 (antibody, V domains shown)
VH: EVQLVESGGDLVKPAGSLRLSCLASGFTFSSYSMSWVRQAPEKGLQSVAGINSDGDRTYYTDAVKGRFTISRDNAKSTVYLQMNSLRAEDTAMYYCVRGFSSFNAFGYWGQGTLVTVSS
VL: DIVMTQTPLSLSVSPGETASISCKASQSLLHSDGNTYLSWFRQKPGQSPHRLIYAVSHRHPGVPDRFSGSGSGTDFTLRISRVEADDAGLYYCGQVIQDPWTFGAGTKVELK
Consider B5, for which the Kd in the assay with canine PD-1 ECD-6His came to 6.8 nM; in assay [1] it was 1.05 nM; in the assay with canine PD-1 ECD-mFc it was 0.0297 nM.

B6: PD-1 (receptor)
chain: LDSPDRPWSPLTFSPAQLTVQEGENATFTCSLADIPDSFVLNWYRLSPRNQTDKLAAFQEDRIEPGRDRRFRVTRLPNGRDFHMSIVAARLNDSGIYLCGAIYLPPNTQINESPRAELSVTERTLEPPTQSPSPPPRLSGQLQGLVIGVTSVLVGVLLLLLLTWVLAAVFPRATRGACVCGSEDEPLKEGPDAAPVFTLDYGELDFQWREKTPEPPAPCAPEQTEYATIVFPGRPASPGRRASASSLQGAQPPSPEDGPGLWPL
For the molecule B6, the Kd was 8.23 nM with PMX-149, 6.83 nM with PMX-150, 2.65 nM with PMX-147 and 5.75 nM in the assay with PMX-145.
